Reference: US20180016342A1 (published 2018)
Substitutions are numbered along the chain they refer to. Each block holds one molecule with its values, some of them ahead of it.

What was measured:
[1] = target: membrane-bound IL6R on human cells (U266, XG-1, TF-1) (human) (UniProt P08887); experiment: cell-based or functional assay
human soluble IL6-R [2] = target: T1, human soluble IL6-R (human, UniProt P08887 20-358); experiment: Alphascreen inhibition of IL6/IL6-R interaction
T1 chain: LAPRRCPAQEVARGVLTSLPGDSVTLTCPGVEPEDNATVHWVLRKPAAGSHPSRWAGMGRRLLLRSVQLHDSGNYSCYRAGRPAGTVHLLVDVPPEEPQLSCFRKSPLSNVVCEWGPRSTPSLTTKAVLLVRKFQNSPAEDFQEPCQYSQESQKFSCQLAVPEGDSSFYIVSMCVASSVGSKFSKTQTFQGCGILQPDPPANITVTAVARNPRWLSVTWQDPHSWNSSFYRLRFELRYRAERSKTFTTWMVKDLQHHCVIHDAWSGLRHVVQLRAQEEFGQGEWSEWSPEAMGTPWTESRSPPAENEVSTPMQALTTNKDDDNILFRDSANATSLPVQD

human soluble IL6-R [3] = target: T1, human soluble IL6-R; experiment: Alphascreen inhibition of IL6/IL6-R interaction
[4] = target: T2, soluble IL6-R in cynomolgus plasma (cynomolgus monkey, UniProt A0A2K5WN54 60-386); experiment: ELISA inhibition of IL-6 binding to plasma sIL6R; cyno plasma, 50 ng/mL IL-6
T2 chain: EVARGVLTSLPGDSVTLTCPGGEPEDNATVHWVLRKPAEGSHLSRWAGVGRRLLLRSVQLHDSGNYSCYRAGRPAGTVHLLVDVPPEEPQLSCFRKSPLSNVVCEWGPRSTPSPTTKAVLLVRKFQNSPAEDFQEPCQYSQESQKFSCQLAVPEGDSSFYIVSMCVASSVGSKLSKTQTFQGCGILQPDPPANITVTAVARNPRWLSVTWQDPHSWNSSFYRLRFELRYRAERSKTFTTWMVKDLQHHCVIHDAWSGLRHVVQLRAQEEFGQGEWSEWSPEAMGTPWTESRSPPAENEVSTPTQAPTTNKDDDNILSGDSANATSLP

human soluble IL6-R [5] = target: T1, human soluble IL6-R; experiment: Alphascreen inhibition of IL6/IL6-R interaction
human soluble IL6-R [6] = target: T1, human soluble IL6-R; experiment: Alphascreen inhibition of IL6/IL6-R interaction; printed LOGEC50 -9.833
human soluble IL6-R [7] = target: T1, human soluble IL6-R; experiment: Alphascreen inhibition of IL6/IL6-R interaction

Molecule: MAb BN-12 (antibody)
IC50 (nM), XG-1 cell based assay [1]: 0.272 nM

B3: IL6R81 (VHH)
VHH: EVQLVESGGGLVQPGGSLRLSCAASGFTFDDYGMSWVRQAPGRATEWVSAISWNGNNTYYTESMKGRFTISRDNAKNTVYLQMNSLRPEDTAVYYCVKGSTAIVGVPPTYPDEYDYWGQGTLVTVSS
EC50 (human soluble IL6-R [2]): 0.0747 nM

B7: IL6R03 (VHH)
VHH: EVQLVESGGGLVQAGGSLRLSCAASGSIFKVNAMGWYRQAPGKQRELVAGIISGGSTNYADSVKGRLTISRDNAKNTVYLQMNSLKPEDTAVYYCSFVTTNSDYDLGRDYWGQGTQVTVSS
EC50 (human soluble IL6-R [5]): 0.187 nM
EC50 (human soluble IL6-R [3]): 0.105 nM
EC50 [4]: 5.88 nM

B9: IL6R62 (VHH)
VHH: B7 VHH with A14P, Q44G, L67F, K86R, Q116L
EC50 (human soluble IL6-R [5]): 0.28 nM

B11: IL6R64 (VHH)
VHH: B7 VHH with A14P, Q44G, K86R, S96A, Q116L
EC50 (human soluble IL6-R [5]): 0.108 nM

B12: IL6R65 (VHH)
VHH: B7 VHH with A14P, Q44G, L67F, V78L, K86R, S96A, Q116L
EC50 (human soluble IL6-R [6]): 0.105 nM
EC50 [4]: 4.91 nM

B13: IL6R04 (VHH)
VHH: EVQLVESGGGLVQAGGSLRLSCAASGFTFDDYDIGWFRQAPGKEREGVSGISSSDGNTYYADSVKGRFTISSDNAKNTVYLQMNSLKPEDTAVYYCAAEPPDSSWYLDGSPEFFKYWGQGTQVTVSS
EC50 (human soluble IL6-R [7]): 0.18 nM
EC50 (human soluble IL6-R [3]): 0.0568 nM
EC50 [4]: 36.9 nM

B14: IL6R73 (VHH)
VHH: B13 VHH with A14P, E44G, S72R, K87R, Q122L
EC50 (human soluble IL6-R [7]): 0.0916 nM

B15: IL6R72 (VHH)
VHH: B13 VHH with A14P, D30S, E44G, K87R, Q122L
EC50 (human soluble IL6-R [7]): 0.16 nM

B17: IL6R75 (VHH)
VHH: B13 VHH with A14P, D30S, E44G, S72R, V79L, K87R, Q122L
EC50 (human soluble IL6-R [3]): 0.0432 nM

Second part, the molecule after the results:

IC50 (+1% HSA), TF-1 proliferation assay, 200 pg/ml IL-6 [1]: 0.088
IC50 (nM), XG-1 cell based assay [1]: 0.064 nM
IC50 (w/o HSA), TF-1 proliferation assay, 200 pg/ml IL-6 [1]: 0.042
Molecule: MAb BR-6 (antibody)

EC50 (human soluble IL6-R [2]): 0.465 nM
B1: IL6R84 (VHH)
VHH: B3 VHH with R43K, A44G, T45L, V79L

EC50 (human soluble IL6-R [2]): 0.0779 nM
B2: IL6R83 (VHH)
VHH: B3 VHH with V79L

EC50 (human soluble IL6-R [2]): 0.0644 nM
EC50 (human soluble IL6-R [3]): 0.0505 nM
EC50 [4]: 11.7 nM
B4: IL6R13 (VHH)
VHH: B3 VHH with R87K, L122Q

EC50 (human soluble IL6-R [2]): 0.476 nM
B5: IL6R82 (VHH)
VHH: B3 VHH with R43K, A44G, T45L

EC50 (human soluble IL6-R [3]): 0.0727 nM
EC50 [4]: 23.3 nM
B6: IL6R88 (VHH)
VHH: B3 VHH with R43K, A44G, V79L

EC50 (human soluble IL6-R [5]): 0.65 nM
B8: IL6R63 (VHH)
VHH: B7 VHH with A14P, Q44G, V78L, K86R, Q116L

EC50 (human soluble IL6-R [5]): 0.336 nM
B10: IL6R61 (VHH)
VHH: B7 VHH with A14P, Q44G, K86R, Q116L

EC50 (human soluble IL6-R [7]): 0.133 nM
B16: IL6R74 (VHH)
VHH: B13 VHH with A14P, E44G, V79L, K87R, Q122L

EC50 (human soluble IL6-R [7]): 0.153 nM
B18: IL6R71 (VHH)
VHH: B13 VHH with A14P, E44G, K87R, Q122L
